According to article PMC11984392 (2025):
*1 amine or outer side, *2 acyl side, *3 side chain or, on linkers, in order; H or OH if unused. Bridges are numbered along the chain shown (N, C = ends). Primed or numbered codes have the meaning given here. [ ]: non-standard residue; d: D form. The star is where a group is joined. TATA = O=C(CC[*:1])N1CN(C(=O)CC[*:2])CN(C(=O)CC[*:3])C1; NOTA = O=C(O)CN1CCN(CC(=O)O)CCN(CC(=O)*)CC1; Hyp = O=C(O)[C@@H]1C[C@@H](O)CN1; hArg = N=C(N)NCCCC[C@H](N)C(=O)O; PEG2′ = not defined here; Sar = CNCC(=O)O

Tests used:
His-tagged mouse EphA2 = biological target: T1, His-tagged mouse EphA2 (mouse, UniProt Q03145 26-538); experiment: SPR
T1 chain: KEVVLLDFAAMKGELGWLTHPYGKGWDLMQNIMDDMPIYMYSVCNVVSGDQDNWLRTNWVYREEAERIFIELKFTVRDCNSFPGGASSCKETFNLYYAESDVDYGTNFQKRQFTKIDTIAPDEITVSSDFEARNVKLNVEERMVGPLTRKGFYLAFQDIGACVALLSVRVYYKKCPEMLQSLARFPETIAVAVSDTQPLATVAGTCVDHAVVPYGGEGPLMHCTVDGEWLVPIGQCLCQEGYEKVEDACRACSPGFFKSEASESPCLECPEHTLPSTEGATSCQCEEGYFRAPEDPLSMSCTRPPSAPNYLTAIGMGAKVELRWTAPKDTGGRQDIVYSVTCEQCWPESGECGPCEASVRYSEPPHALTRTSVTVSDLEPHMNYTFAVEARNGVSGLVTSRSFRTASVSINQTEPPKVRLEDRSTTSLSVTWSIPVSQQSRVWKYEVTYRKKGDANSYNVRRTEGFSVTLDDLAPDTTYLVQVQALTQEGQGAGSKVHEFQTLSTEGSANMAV

His-tagged human EphA2 = His-tagged human EphA2 (human, UniProt P29317 24-537); experiment: SPR
Chain of His-tagged human EphA2 (P29317 24-537): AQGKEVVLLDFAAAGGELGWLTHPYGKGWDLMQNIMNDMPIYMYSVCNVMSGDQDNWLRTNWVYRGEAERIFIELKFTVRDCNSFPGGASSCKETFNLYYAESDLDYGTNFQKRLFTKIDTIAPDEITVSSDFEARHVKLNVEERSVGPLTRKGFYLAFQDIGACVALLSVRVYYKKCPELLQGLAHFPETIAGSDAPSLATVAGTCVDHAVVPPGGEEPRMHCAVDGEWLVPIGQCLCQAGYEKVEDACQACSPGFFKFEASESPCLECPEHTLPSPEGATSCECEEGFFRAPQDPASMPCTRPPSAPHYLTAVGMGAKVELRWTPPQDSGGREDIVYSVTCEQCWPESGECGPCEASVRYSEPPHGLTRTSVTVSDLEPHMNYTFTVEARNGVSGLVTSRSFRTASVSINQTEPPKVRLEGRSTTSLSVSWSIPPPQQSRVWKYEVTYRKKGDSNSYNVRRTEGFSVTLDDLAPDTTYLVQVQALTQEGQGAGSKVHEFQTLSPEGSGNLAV

- koff (His-tagged mouse EphA2): 0.00301 s⁻¹
- koff (His-tagged human EphA2): 0.00133 s⁻¹
B1: AJ201 (peptide)
peptide: {NOTA-PEG2′}-GR[Sar][Sar][Sar]GA[hArg]DC[Hyp]LVNPLCLHP[dD]W[hArg]C-NH2
modifications: linker 10-17-24 via TATA; not fully specified; also: hydroxyproline, place not given here
